Tests used:
[1] = molecular target: GDF-8 receptor (cell surface binding proteins on L6 and G-8 myoblasts); test: receptor-ligand binding assay with I-125 GDF-8 on L6 myoblasts
[2] = molecular target: GDF-8 receptor (cell surface binding proteins on L6 and G-8 myoblasts); test: receptor-ligand binding assay with I-125 GDF-8 on myoblasts
[3] = molecular target: T1, mature C-terminal myostatin peptide (disulfide-linked C-terminal dimer), purified from CHO cell conditioned … (UniProt O14793 24-375, limits assumed, radio-iodinated (on tyrosine, residues not stated) in the receptor binding assay); test: radio-iodinated myostatin on COS cells transfected with Act RIIB, Scatchard analysis
T1 construct: mature; also called GDF-8; mature C-terminal peptide
T1 sequence (looked up): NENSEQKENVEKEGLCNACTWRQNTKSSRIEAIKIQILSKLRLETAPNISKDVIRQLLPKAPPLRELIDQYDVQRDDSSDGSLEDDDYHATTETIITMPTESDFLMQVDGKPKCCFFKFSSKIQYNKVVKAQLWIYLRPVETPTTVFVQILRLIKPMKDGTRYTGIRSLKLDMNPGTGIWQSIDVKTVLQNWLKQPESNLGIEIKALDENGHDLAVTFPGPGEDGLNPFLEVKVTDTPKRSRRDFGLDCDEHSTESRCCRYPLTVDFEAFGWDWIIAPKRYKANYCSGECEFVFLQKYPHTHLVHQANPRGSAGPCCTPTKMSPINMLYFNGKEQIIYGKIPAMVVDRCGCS

Row | Molecule | receptors/cell (receptors/cell) [1] | Kd [2] [nM] | Kd [3] [nM]
1 | recombinant human GDF-8 (rhGDF-8) homodimer (from UniProt O14793 267-374) (ligand) | 5000 | 0.37 | –
2 | activin type IIB receptor (Act RIIB) expressed on transfected COS cells (receptor) SGRGEAETRECIYYNANWELERTNQSGLERCEGEQDKRLHCYASWRNSSGTIELVKKGCWLDDFNCYDRQECVATEENPQVYFCCCEGNFCNERFTHLPEAGGPEVTYEPPPTAPTLLTVLAYSLLPIGGLSLIVLLAFWMYRHRKPPYGHVDIHEDPGPPPPSPLVGLKPLQLLEIKARGRFGCVWKAQLMNDFVAVKIFPLQDKQSWQSEREIFSTPGMKHENLLQFIAAEKRGSNLEVELWLITAFHDKGSLTDYLKGNIITWNELCHVAETMSRGLSYLHEDVPWCRGEGHKPSIAHRDFKSKNVLLKSDLTAVLADFGLAVRFEPGKPPGDTHGQVGTRRYMAPEVLEGAINFQRDAFLRIDMYAMGLVLWELVSRCKAADGPVDEYMLPFEEEIGQHPSLEELQEVVVHKKMRPTIKDHWLKHPGLAQLCVTIEECWDHDAEARLSAGCVEERVSLIRRSVNGTTSDCLVSLVTSVTNVDLPPKESSI | – | – | ~5

Source: patent publication US20110239317A1 (Johns Hopkins, published 2011)
